Source: patent publication US20090054250, “Methods to create fluorescent biosensors using aptamers with fluorescent base analogs” (published 2009)

How the values were obtained:
alpha-thrombin [1] = biological target: T1, alpha-thrombin (Homo sapiens, UniProt P00734;P00734 P00734:328-363,P00734:364-622); assay: 3MI signal of streptavidin-aptamer complex; AlexaFluor 430 up 1.9-fold
alpha-thrombin [2] = biological target: T1, alpha-thrombin; assay: 3MI signal, 350 nm excitation; AlexaFluor 430 FRET signal up 2.9-fold
[3] = biological target: PDGF-BB (platelet-derived growth factor B homodimer) (UniProt P01127 P01127:82-190); assay: saturating protein; conditions: chain copies: 2 stated, three-helix junction
Chain of PDGF-BB (platelet-derived growth factor B homodimer) (P01127 82-190, one chain of several): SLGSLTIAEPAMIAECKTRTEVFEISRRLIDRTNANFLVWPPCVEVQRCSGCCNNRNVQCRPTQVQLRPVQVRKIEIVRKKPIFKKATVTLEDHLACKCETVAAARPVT

alpha-thrombin [4] = biological target: T1, alpha-thrombin; assay: 6MAP fluorescence at saturating protein
alpha-thrombin [5] = biological target: T1, alpha-thrombin; assay: 3MI fluorescence at saturating protein

B1: thrombin aptamer 3MI-7 biotin (ssDNA)
DNA: GGTTGGTGTGGTTGG
modifications: n at position 7 is 3-methylisoxanthopterin; 5' 40-atom linker [7 (3-methylisoxanthopterin replacing T); 5' 40-atom linker with biotin left out]
binding signal (alpha-thrombin [1]): ~7.1 fold fluorescence increase

B2: thrombin aptamer 3MI-7 AlexaFluor 430 (ssDNA)
DNA: GGTTGGTGTGGTTGG
modifications: n at position 7 is 3-methylisoxanthopterin; 5' 21-atom amino linker [7 (3-methylisoxanthopterin replacing T); 5' 21-atom amino linker with AlexaFluor 430 left out]
binding signal (alpha-thrombin [2]): ~7.5 fold fluorescence increase

CACAGGCTACGGCACGTAGAGCATCACCATGATCCTGTG (ssDNA, n at position 22 is 6MAP replacing C [22 (6MAP replacing C)]) [PDGF-B aptamer 6MAP-22]
binding signal ([3]; label: 6MAP): 6.7 fold fluorescence increase

B3: PDGF-B aptamer 3MI-22 (ssDNA)
DNA: CACAGGCTACGGCACGTAGAGCATCACCATGATCCTGTG
modifications: n at position 22 is 3-methylisoxanthopterin replacing C [22 (3-methylisoxanthopterin replacing C)]
binding signal ([3]; label: 3MI): 2.5 fold fluorescence increase

B4: thrombin aptamer 6MAP-7 (ssDNA)
DNA: GGTTGGTGTGGTTGG
modifications: n at position 7 is 4-amino-6-methyl-pteridone (6MAP) replacing T [7 (6MAP replacing T)]
binding signal (alpha-thrombin [4]): 32.9 fold fluorescence increase

B5: thrombin aptamer 3MI-7 (ssDNA)
DNA: GGTTGGTGTGGTTGG
modifications: n at position 7 is 3-methylisoxanthopterin replacing T [7 (3-methylisoxanthopterin replacing T)]
binding signal (alpha-thrombin [5]): 9.7 fold fluorescence increase
